According to patent publication EP4696707A1:

Each binder was assayed against ATP5B protein (UniProt P06576) (assay: SPR, ATP5B amine-coupled to CM5 chip, peptide in flow at 50 µl/min; binding relative to SEQ ID NO: 12).
ATP5B protein, sequence (P06576 48-529 limits assumed): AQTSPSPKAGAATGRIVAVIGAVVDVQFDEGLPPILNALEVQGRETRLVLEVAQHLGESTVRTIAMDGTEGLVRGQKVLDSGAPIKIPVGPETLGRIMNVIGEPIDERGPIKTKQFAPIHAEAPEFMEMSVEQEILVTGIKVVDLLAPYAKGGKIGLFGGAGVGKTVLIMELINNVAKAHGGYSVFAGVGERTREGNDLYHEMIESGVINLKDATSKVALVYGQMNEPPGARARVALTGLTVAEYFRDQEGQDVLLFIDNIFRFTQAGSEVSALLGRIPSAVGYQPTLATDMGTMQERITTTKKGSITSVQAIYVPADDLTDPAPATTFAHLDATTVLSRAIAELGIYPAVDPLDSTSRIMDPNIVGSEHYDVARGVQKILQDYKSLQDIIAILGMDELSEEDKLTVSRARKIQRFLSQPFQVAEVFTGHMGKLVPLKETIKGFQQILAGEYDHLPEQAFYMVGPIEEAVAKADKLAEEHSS

Binder | Binding (%)
ADRGAGSIREAGGAFGKREQAEEERYFR [Shortened substance (8-35) amino acid Ala substituted (8)] | 101
VDRGAGSIREAAGAFGKREQAEEERYFR [Shortened substance (8-35) amino acid Ala substituted (19)] | 89.6
VDRGAGSAREAGGAFGKREQAEEERYFR [Shortened substance (8-35) amino acid Ala substituted (15)] | 99.3
VDRGAGAIREAGGAFGKREQAEEERYFR [Shortened substance (8-35) amino acid Ala substituted (14)] | 98.8
VDRGAGSIREAGGAFGKREAAEEERYFR [Shortened substance (8-35) amino acid Ala substituted (27)] | 89.5
VDRGAGSIREAGGAFGAREQAEEERYFR [Shortened substance (8-35) amino acid Ala substituted (24)] | 100
VDRGAGSIREAGGAFGKREQAEEERAFR [Shortened substance (8-35) amino acid Ala substituted (33)] | 146
VDRGAGSIREAGGAFGKREQAEEERYFR [Shortened substance (8-35)] | 100
VDRGAGSIREAGGAAGKREQAEEERYFR [Shortened substance (8-35) amino acid Ala substituted (22)] | 94
VDRGAGSIREAGGAFGKREQAAEERYFR [Shortened substance (8-35) amino acid Ala substituted (29)] | 96.7
VARGAGSIREAGGAFGKREQAEEERYFR [Shortened substance (8-35) amino acid Ala substituted (9)] | 91.6
VDRGAGSIAEAGGAFGKREQAEEERYFR [Shortened substance (8-35) amino acid Ala substituted (16)] | 97
VDRGAGSIREAGAAFGKREQAEEERYFR [Shortened substance (8-35) amino acid Ala substituted (20)] | 68
VDRGAGSIREAGGAFGKREQAEAERYFR [Shortened substance (8-35) amino acid Ala substituted (30)] | 94
VDRGAGSIREAGGAFGKAEQAEEERYFR [Shortened substance (8-35) amino acid Ala substituted (25)] | 85.2
VDRGAGSIRAAGGAFGKREQAEEERYFR [Shortened substance (8-35) amino acid Ala substituted (17)] | 169

The next lines start with the values.

Binding (%) | Binder
102 | VDRGAGSIREAGGAFAKREQAEEERYFR [Shortened substance (8-35) amino acid Ala substituted (23)]
92.1 | VDRGAGSIREAGGAFGKREQAEEERYAR [Shortened substance (8-35) amino acid Ala substituted (34)]
94.1 | VDRGAGSIREAGGAFGKRAQAEEERYFR [Shortened substance (8-35) amino acid Ala substituted (26)]
98.5 | VDRGAASIREAGGAFGKREQAEEERYFR [Shortened substance (8-35) amino acid Ala substituted (13)]
100 | VDRAAGSIREAGGAFGKREQAEEERYFR [Shortened substance (8-35) amino acid Ala substituted (11)]
104 | VDAGAGSIREAGGAFGKREQAEEERYFR [Shortened substance (8-35) amino acid Ala substituted (10)]
110 | VDRGAGSIREAGGAFGKREQAEEERYFA [Shortened substance (8-35) amino acid Ala substituted (35)]
426 | VDRGAGSIREAGGAFGKREQAEEEAYFR [Shortened substance (8-35) amino acid Ala substituted (32)]
158 | VDRGAGSIREAGGAFGKREQAEEARYFR [Shortened substance (8-35) amino acid Ala substituted (31)]
